Results taken from article PMC11624268, “Leishmania protein KMP-11 modulates cholesterol transport and membrane fluidity to facilitate host cell invasion” (EMBO Reports, 2024).

B1: purified recombinant KMP-11 (kinetoplastid membrane protein-11), wild type (natural protein)
chain: MATTYEEFSAKLDRLDQEFNRKMQEQNAKFFADKPDESTLSPEMREHYEKFERMIKEHTEKFNKKMHEHSEHFKQKFAELLEQQKAAQYPSK
notes: amino-terminal stretch (1-19) of kinetoplastid membrane protein-11 (KMP-11), Leishmania donovani (so in the source); rest of kinetoplastid membrane protein-11 (KMP-11), Leishmania donovani, after the printed stretch 1-19; Purification by the procedure of Sharma et al, 2013; also called r-KMP-11; WT KMP-11; source: pET28a, bacterial culture, purified (Ni-NTA, endotoxin removal column, gel …)

Tests used:
[1] = target: the molecule itself; assay: negative stain TEM; purified KMP-11 (0.1 mg/ml) in the presence of DPPC ERG (30%) SUVs; 50 mM tris pH 8.0, 150 mM NaCl; 1% uranyl acetate
[2] = target: the molecule itself; assay: single molecule photobleaching step analysis (TIRF microscopy); 50 nM Alexa-488 maleimide labeled KMP-11 (S38C) on PEG cushioned supported bilayer of DPPC-ERG (30%); 30 min incubation; manual step counts from 235 spots
[3] = target: B1; assay: fluorescence correlation spectroscopy (FCS); 50 nM Alexa488Maleimide labeled r-KMP-11 in the presence of unlabeled r-KMP-11 at different total concentrations; diffusion time read out; in the absence and presence of different salt concentrations (salt facilitates self-association); conditions: both partners purified

Row | Binder | stoichiometry N [1] | stoichiometry N [2] | binding result [3]
1 | B1 | 4 | – | –
2 | Alexa488-maleimide labeled r-KMP-11 S38C (kinetoplastid membrane protein-11, single cysteine mutant) (natural protein, Alexa-488 maleimide on the single cysteine (S38C); labeling percentage 86%, amino-terminal stretch (1-19) of kinetoplastid membrane protein-11 (KMP-11), Leishmania donovani (so in the source); rest of kinetoplastid membrane protein-11 (KMP-11), Leishmania donovani, after the printed stretch 1-19; The labeled protein was passed through Ni NTA after labeling, so the tag was probably still there; Purification by the procedure of Sharma et al, 2013; also called …) MATTYEEFSAKLDRLDQEFNRKMQEQNAKFFADKPDECTLSPEMREHYEKFERMIKEHTEKFNKKMHEHSEHFKQKFAELLEQQKAAQYPSK | – | 4 | binds
